Target: RecBCD (endogenous exonuclease of the E. coli cell-free extract) (E. coli) (UniProt P08394)
Assay: cell-based or functional assay

Sequence of UniProt P08394 (P08394 2-1180 limits assumed, chain 1 of 3): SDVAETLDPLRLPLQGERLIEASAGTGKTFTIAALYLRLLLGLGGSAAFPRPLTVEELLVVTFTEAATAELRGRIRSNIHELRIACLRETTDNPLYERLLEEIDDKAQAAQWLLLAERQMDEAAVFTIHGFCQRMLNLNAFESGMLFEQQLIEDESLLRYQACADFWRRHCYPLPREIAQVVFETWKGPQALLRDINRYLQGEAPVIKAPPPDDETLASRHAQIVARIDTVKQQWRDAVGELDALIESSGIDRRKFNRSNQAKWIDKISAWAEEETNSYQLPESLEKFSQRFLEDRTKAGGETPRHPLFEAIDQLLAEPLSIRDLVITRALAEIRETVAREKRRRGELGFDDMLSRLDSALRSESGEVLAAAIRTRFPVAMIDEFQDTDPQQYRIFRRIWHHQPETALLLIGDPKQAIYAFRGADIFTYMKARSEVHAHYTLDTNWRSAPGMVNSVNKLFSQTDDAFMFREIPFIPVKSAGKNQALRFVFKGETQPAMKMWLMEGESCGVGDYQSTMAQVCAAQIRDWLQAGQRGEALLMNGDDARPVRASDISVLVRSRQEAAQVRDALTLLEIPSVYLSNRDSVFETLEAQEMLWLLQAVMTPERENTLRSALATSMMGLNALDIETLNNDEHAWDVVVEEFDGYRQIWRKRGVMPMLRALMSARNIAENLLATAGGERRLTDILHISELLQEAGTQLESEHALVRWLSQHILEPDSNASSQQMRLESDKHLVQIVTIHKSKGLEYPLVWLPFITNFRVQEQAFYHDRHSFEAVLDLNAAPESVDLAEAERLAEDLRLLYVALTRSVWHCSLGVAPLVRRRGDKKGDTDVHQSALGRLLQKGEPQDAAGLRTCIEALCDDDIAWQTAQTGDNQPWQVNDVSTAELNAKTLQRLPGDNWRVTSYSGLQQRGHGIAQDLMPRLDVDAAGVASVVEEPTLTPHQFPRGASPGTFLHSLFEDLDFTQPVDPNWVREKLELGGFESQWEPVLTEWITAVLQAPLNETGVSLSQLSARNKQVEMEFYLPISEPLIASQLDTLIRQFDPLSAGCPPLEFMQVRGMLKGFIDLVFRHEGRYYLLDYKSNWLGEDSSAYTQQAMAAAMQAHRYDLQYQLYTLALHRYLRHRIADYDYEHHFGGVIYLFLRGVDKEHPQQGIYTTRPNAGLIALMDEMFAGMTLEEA
Sequence of UniProt P08394 (P07648 whole entry, chain 2 of 3, further chain): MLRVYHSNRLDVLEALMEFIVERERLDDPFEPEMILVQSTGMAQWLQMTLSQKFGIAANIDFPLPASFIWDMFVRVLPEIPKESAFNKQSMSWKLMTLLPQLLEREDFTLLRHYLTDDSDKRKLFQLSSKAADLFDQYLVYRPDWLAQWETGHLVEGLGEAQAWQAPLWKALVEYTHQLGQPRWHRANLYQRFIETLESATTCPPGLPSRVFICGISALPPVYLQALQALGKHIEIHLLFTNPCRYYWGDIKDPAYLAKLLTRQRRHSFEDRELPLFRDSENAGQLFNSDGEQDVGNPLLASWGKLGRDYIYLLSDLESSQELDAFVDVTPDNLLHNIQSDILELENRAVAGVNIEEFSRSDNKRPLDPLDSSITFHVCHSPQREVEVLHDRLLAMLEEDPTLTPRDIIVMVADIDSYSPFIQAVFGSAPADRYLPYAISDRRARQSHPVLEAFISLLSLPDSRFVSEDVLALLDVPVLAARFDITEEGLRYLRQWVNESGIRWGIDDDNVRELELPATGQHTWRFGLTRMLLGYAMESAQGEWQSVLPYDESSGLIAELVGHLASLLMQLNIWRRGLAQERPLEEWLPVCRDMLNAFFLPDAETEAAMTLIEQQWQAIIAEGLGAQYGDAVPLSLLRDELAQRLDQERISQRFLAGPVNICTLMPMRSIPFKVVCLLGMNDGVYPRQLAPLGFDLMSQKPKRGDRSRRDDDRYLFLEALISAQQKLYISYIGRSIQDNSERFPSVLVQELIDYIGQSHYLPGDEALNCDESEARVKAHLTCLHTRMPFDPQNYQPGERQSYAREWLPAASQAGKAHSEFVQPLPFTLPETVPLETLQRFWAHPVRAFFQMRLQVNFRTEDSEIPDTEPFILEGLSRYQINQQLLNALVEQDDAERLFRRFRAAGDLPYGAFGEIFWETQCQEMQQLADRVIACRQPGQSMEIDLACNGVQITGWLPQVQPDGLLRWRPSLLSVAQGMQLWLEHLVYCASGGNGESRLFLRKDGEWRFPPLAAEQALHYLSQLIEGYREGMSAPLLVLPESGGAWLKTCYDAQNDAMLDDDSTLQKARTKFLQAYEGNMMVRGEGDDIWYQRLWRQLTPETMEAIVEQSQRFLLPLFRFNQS
Sequence of UniProt P08394 (P04993 whole entry, chain 3 of 3, further chain): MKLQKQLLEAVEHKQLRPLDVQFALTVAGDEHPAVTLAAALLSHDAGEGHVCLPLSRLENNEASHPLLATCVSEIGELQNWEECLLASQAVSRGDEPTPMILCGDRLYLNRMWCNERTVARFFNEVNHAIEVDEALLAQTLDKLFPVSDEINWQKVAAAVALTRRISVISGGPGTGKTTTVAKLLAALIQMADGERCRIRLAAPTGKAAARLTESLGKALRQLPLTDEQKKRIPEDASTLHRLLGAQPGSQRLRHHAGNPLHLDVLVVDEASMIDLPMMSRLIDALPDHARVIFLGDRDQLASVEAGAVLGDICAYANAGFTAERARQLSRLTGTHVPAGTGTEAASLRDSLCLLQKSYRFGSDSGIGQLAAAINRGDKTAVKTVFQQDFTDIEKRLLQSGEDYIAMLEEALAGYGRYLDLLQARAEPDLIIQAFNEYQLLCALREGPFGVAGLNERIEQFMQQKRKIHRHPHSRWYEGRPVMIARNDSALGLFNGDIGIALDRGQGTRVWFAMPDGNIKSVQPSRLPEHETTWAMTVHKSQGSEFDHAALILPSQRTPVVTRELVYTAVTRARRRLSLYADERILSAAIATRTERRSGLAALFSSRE

gamS protein (GamS, a truncated form of lambda gam) (from UniProt P03702 1-98)
protection of linear DNA from degradation in TX-TL (endpoint deGFP expression from 2 nM linear DNA); gamS working concentration: 3.5 µM
